Experimental data reported in the PETadex activity labels (doi:10.1016/j.jhazmat.2023.131574).
Numbering of substitutions follows the chain as printed.

Key:
PCL; PBS; PHA; PLA; PUR = assay: Proxy for plastic degradation [Weight/mass loss]; conditions: pH 7; 24 h

B1: unnamed (protein)
chain: MSNGYSACPAPYDHRGMRKHASLLAALPVLLAACGTTTSTLTTPAVTPQTLSGAATNPYERGPAPTTALLEAARGPYATASTTVPRSSVSDFGGATIYYPTSTADGTFGGVAISPGYTGTQASVAWLGPRLASHGFVVIVIDTLSRYDYPSSRGDQLRAALRYLTTSSAVRTRVDATRLAVMGHSMGGGGALEAAKDNPALKAAIPLTPWNTDKSWPELTTPTLIFGAQNDSVAPVSSHAIPFYTSLASTLPKAYLELRGASHGAPTSTNTTIAKYAVAWLKRFEDADRRYDPFLCPTPAVSTLLSDARSTCPFN
With B1 the Km (p-NP-C10; 50 °C) was 930 µM, the kcat (p-NP-C10; 50 °C) was 2.47 s⁻¹ and the kcat/Km (p-NP-C10; 50 °C) was 2660 M⁻¹ s⁻¹. The Km (p-NP-C2; 50 °C) was 900 µM, the kcat (p-NP-C2; 50 °C) was 27.5 s⁻¹ and the kcat/Km (p-NP-C2; 50 °C) was 30600 M⁻¹ s⁻¹. It also gave a Km (p-NP-C4; 50 °C) of 190 µM, a kcat (p-NP-C4; 50 °C) of 30.8 s⁻¹ and a kcat/Km (p-NP-C4; 50 °C) of 162000 M⁻¹ s⁻¹. It also gave a Km (p-NP-C8; 50 °C) of 1290 µM, a kcat (p-NP-C8; 50 °C) of 11.3 s⁻¹ and a kcat/Km (p-NP-C8; 50 °C) of 8780 M⁻¹ s⁻¹.

B2: unnamed (protein)
chain: B1 chain with E285D, D286A, A287D, D288A
B2 was tested, and the “Proxy for plastic degradation” value (PCL; PBS; PHA; PLA; PUR) was 79%.

B3: unnamed (protein)
chain: MDGVLWRVRTAALMAALLALAAWALVWASPSVEAQSNPYQRGPNPTRSALTADGPFSVATYTVSRLSVSGFGGGVIYYPTGTSLTFGGIAMSPGYTADASSLAWLGRRLASHGFVVLVINTNSRFDGPDSRASQLSAALNYLRTSSPSAVRARLDANRLAVAGHSMGGGGTLRIAEQNPSLKAAVPLTPWHTDKTFNTSVPVLIVGAEADTVAPVSQHAIPFYQNLPSTTPKVYVELCNASHIAPNSNNAAISVYTISWMKLWVDNDTRYRQFLCNVNDPALCDFRTNNRHCQ
B3 gave a Km (p-NP-C10; 60 °C) of 2680 µM, a kcat (p-NP-C10; 60 °C) of 8.11 s⁻¹ and a kcat/Km (p-NP-C10; 60 °C) of 3030 M⁻¹ s⁻¹. It also gave a Km (p-NP-C2; 60 °C) of 7310 µM, a kcat (p-NP-C2; 60 °C) of 159 s⁻¹ and a kcat/Km (p-NP-C2; 60 °C) of 21800 M⁻¹ s⁻¹. The Km (p-NP-C4; 60 °C) was 760 µM, the kcat (p-NP-C4; 60 °C) was 137 s⁻¹ and the kcat/Km (p-NP-C4; 60 °C) was 180000 M⁻¹ s⁻¹. The Km (p-NP-C8; 60 °C) was 7440 µM, the kcat (p-NP-C8; 60 °C) was 107 s⁻¹ and the kcat/Km (p-NP-C8; 60 °C) was 14300 M⁻¹ s⁻¹.
